Test results as given in patent US20160304628A1.
Primed or numbered codes have the meaning given here. Where no end group is shown, it is not given here. [ ]: non-standard residue; d: D form. The star is where a group is joined. Hpra′ = its azide, alkyne or alkene has reacted where a group follows in round brackets; Man9 = Man9 glycan, attached by click reaction of Man9-azide with homopropargylglycine; maleimide‑biotin = maleimide-biotin reagent joined to deprotected Cys; For = O=C*

Tests used:
[1] = biological target: HIV broadly neutralizing monoclonal antibody 2G12; experiment: radiolabeled glycopeptide, 2G12 titration, protein G bead capture, scintillation counting
[2] = biological target: HIV broadly neutralizing monoclonal antibody 2G12; experiment: BLI (BLItz), biotin-10F2 on streptavidin sensor, 2G12 in solution at 0.5 nM
[3] = biological target: HIV broadly neutralizing monoclonal antibody 2G12; experiment: BLI (BLItz), biotin-10F2 on streptavidin sensor, 2G12 in solution at 8 nM; global 1:1 fit
[4] = biological target: HIV broadly neutralizing monoclonal antibody 2G12; experiment: BLI (BLItz), biotin-10F2 on streptavidin sensor, 2G12 in solution at 0.5 nM; global 1:1 fit
[5] = biological target: HIV broadly neutralizing monoclonal antibody 2G12; experiment: BLI (BLItz), biotin-10F2 on streptavidin sensor, 2G12 in solution at 32 nM; global 1:1 fit
[6] = biological target: HIV broadly neutralizing monoclonal antibody 2G12; experiment: BLI (BLItz), biotin-10F2 on streptavidin sensor, 2G12 in solution at 2 nM; global 1:1 fit
[7] = biological target: HIV broadly neutralizing monoclonal antibody 2G12; experiment: BLI (BLItz), biotin-10F2 on streptavidin sensor, 2G12 in solution at 4 nM
[8] = biological target: HIV broadly neutralizing monoclonal antibody 2G12; experiment: BLI (BLItz), biotin-10F2 on streptavidin sensor, 2G12 in solution at 2 nM
[9] = biological target: HIV broadly neutralizing monoclonal antibody 2G12; experiment: BLI (BLItz), biotin-10F2 on streptavidin sensor, 2G12 in solution at 1 nM
[10] = biological target: HIV broadly neutralizing monoclonal antibody 2G12; experiment: BLI (BLItz), biotin-10F2 on streptavidin sensor, 2G12 in solution at 4 nM; global 1:1 fit
[11] = biological target: HIV broadly neutralizing monoclonal antibody 2G12; experiment: BLI (BLItz), biotin-10F2 on streptavidin sensor, 2G12 in solution at 1 nM; global 1:1 fit
[12] = biological target: HIV broadly neutralizing monoclonal antibody 2G12; experiment: BLI (BLItz), biotin-10F2 on streptavidin sensor, 2G12 in solution at 32 nM
[13] = biological target: HIV broadly neutralizing monoclonal antibody 2G12; experiment: BLI (BLItz), biotin-10F2 on streptavidin sensor, 2G12 in solution at 16 nM; global 1:1 fit
[14] = biological target: HIV broadly neutralizing monoclonal antibody 2G12; experiment: BLI (BLItz), biotin-10F2 on streptavidin sensor, 2G12 in solution at 8 nM
[15] = biological target: HIV broadly neutralizing monoclonal antibody 2G12; experiment: BLI (BLItz), biotin-10F2 on streptavidin sensor, 2G12 in solution at 16 nM

B1: glycopeptide 10F5 (Fixed library, round 10) (peptide)
peptide: For-[Hpra′](Man9)SPHLPVLLCK[Hpra′](Man9)VLNDGRRIVQ[Hpra′](Man9)SCELP[Hpra′](Man9)VRRSGSGSLGHHHHHHRDYKDDDDK
modifications: not fully specified; cysteine pairing not given here
[1]
  Fmax: 93%
  Kd: 0.97 nM

## For-[Hpra′](Man9)HPYNTSRTSA[Hpra′](Man9)[Hpra′](Man9)AALK[Hpra′](Man9)QVTD[Hpra′](Man9)YALALFHRILGSGSGC(maleimide‑biotin)A [biotinylated synthetic 10F2 glycopeptide 3]
[2]
  Req: 0.481
[3]
  Kd: 1.37 nM
  koff: 0.000151 s⁻¹
  kon: 111000 M⁻¹ s⁻¹
[4]
  Kd: 1.37 nM
  koff: 0.000151 s⁻¹
  kon: 111000 M⁻¹ s⁻¹
[5]
  Kd: 1.37 nM
  koff: 0.000151 s⁻¹
  kon: 111000 M⁻¹ s⁻¹
[6]
  Kd: 1.37 nM
  koff: 0.000151 s⁻¹
  kon: 111000 M⁻¹ s⁻¹
[7]
  Req: 1.26
[8]
  Req: 0.987
[9]
  Req: 0.682
[10]
  Kd: 1.37 nM
  koff: 0.000151 s⁻¹
  kon: 111000 M⁻¹ s⁻¹
[11]
  Kd: 1.37 nM
  koff: 0.000151 s⁻¹
  kon: 111000 M⁻¹ s⁻¹
[12]
  Req: 1.39
[13]
  Kd: 1.37 nM
  koff: 0.000151 s⁻¹
  kon: 111000 M⁻¹ s⁻¹
[14]
  Req: 1.37
[15]
  Req: 1.41

B2: glycopeptide 10F12 (Fixed library, round 10) (peptide)
peptide: For-[Hpra′](Man9)CYVTVIPA[Hpra′](Man9)N[Hpra′](Man9)PEARLGIVCH[Hpra′](Man9)PGIRRGKALYGSGSLGHHHHHHRDYKDDDDK
modifications: not fully specified; cysteine pairing not given here
[1]
  Fmax: 90%
  Kd: 0.77 nM
